Data as given in US20120088722A1 (PROTEAPEX THERAPEUTICS, published 2012).
Ends that are not written are not given here.

What was measured:
[1] = target: T1, recombinant protein of the calcium-binding, EGF-like domains of LTBP1 (CE-LTBP1); test: fluorescent peptide (100 nM) binding to plate-dried recombinant CE-LTBP1, reference scrambled peptide
T1 construct: It was dried onto poly-L-lysine coated wells
Procedure: (§1) Peptide binding assay—Twenty-five micrograms of total equal protein from cartilage CHAPS extracts or five nanograms recombinant protein of the calcium-like EGF binding domain of LTBP1 (a kind gift of Sarah Dallas) or hypertrophic cartilage from day 17 avian embryo sterna and tibial growth plate cartilage from day 14 newborn rat pups were extracted with 0.5% CHAPS buffer and eluates immunoprecipitated with polyclonal antibody to LTBP1 and then samples were plated onto poly-L-lysine coated 96 well plates. After overnight drying, the protein-coated wells were incubated with 100 nM fluorescent-labeled peptide in Tris buffered saline [150 mM NaCl, 10 mM Tris, pH 8.0] and 20% horse serum for 4 hours at 16° C. After incubation, the wells are washed twice with binding buffer, the protein layer solubilized with 5N NaOH and fluorescence bound measured at 495 nm excitation and 520 nm emission on the LabSystems Fluoroskan Ascent CF plate reader. Statistical analyses and graphing were performed with Prism GraphPad software (ANOVA with Turkey's Analysis). A scrambled peptide of the same amino acid composition was prepared as a negative control. Competition assays were conducted in the presence of 10-fold more (1 μM) naked peptide.

[2] = target: T2, LTBP1 immunoprecipitated from avian hypertrophic cartilage (avian (chick embryo)); test: fluorescent peptide (100 nM) binding to plate-dried LTBP1 immunoprecipitate of avian hypertrophic cartilage, reference scrambled peptide
T2 construct: An immunoprecipitate: proteins associated with LTBP1 (TGFβ LLC components) may be present; also called hypertrophic cartilage immunoprecipitates
Procedure: as §1

[3] = target: T3, LTBP1 immunoprecipitated from rat tibial growth plate cartilage (rat, UniProt Q00918 21-1712, limits assumed); test: fluorescent peptide (100 nM) binding to plate-dried LTBP1 immunoprecipitate of rat tibial growth plate cartilage, reference scrambled peptide
T3 construct: An immunoprecipitate: proteins associated with LTBP1 may be present; also called rat tibial growth plate cartilage immunoprecipitated extracts
Procedure: as §1

T3 sequence (Q00918 21-1712 limits assumed): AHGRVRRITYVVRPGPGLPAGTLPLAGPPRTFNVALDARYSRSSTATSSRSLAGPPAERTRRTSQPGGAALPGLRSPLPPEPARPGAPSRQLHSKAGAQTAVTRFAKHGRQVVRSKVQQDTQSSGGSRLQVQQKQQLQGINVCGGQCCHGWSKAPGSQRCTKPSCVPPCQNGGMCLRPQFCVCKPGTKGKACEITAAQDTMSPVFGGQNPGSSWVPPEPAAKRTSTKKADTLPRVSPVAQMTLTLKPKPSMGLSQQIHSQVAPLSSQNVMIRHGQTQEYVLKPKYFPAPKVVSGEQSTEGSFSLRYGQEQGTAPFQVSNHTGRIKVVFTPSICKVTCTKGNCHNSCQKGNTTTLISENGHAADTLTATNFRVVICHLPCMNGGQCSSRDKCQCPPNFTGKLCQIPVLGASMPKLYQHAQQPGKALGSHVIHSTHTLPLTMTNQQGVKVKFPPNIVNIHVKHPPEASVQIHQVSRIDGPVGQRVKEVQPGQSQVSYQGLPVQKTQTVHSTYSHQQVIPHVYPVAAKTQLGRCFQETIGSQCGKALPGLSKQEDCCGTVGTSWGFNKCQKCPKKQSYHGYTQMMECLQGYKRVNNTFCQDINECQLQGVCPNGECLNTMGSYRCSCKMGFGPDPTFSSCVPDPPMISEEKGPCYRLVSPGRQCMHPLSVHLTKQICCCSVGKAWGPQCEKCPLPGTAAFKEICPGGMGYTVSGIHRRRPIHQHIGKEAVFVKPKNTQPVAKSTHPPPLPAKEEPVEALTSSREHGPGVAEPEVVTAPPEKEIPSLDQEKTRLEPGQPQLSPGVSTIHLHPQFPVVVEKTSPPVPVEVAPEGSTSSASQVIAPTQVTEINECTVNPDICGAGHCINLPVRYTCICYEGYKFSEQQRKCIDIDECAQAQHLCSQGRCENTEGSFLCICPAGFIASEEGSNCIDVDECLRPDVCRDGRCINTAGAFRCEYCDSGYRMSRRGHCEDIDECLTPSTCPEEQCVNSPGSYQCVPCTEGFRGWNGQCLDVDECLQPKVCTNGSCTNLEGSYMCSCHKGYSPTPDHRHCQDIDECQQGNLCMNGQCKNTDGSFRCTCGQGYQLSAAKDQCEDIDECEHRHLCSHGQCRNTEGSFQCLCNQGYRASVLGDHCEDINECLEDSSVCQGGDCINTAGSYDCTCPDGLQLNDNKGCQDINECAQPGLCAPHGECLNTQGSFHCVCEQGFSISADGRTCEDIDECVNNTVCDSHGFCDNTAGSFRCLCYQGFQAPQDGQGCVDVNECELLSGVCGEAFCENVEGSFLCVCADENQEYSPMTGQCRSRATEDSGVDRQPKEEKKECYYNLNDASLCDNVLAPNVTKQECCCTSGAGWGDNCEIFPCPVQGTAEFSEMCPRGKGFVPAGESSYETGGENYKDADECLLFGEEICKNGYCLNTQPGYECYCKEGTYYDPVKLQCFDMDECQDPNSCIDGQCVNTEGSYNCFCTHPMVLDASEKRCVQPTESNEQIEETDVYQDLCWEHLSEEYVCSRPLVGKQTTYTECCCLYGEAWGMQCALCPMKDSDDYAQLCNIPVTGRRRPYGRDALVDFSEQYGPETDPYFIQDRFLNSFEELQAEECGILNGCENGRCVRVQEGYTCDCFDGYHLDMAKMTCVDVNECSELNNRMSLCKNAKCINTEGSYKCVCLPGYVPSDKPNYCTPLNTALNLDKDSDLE

## ELGLPKEVKKISAAVHFED (also: fluorescent-labeled in binding assay, label and position not given here, also called MPP13-19; pxpt 001-1) [MMP13-19 peptide (amino acids 93-111 of SEQ ID NO: 1)]
[1]
  fold binding over scrambled peptide: 27 fold
[2]
  fold binding over scrambled control: 10.5 fold
[3]
  fold binding over scrambled control: 3.9 fold
